Results on three molecules are retold here after US20220289819A1 (GREEN CROSS, published 2022).

B3: hCEACAM1-Fc (Fc fusion)
chain: QLTTESMPFNVAEGKEVLLLVHNLPQQLFGYSWYKGERVDGNRQIVGYAIGTQQATPGPANSGRETIYPNASLLIQNVTQNDTGFYTLQVIKSDLVNEEATGQFHVYPELPKPSISSNNSNPVEDKDAVAFTCEPETQDTTYLWWINNQSLPVSPRLQLSNGNRTLTLLSVTRNDTGPYECEIQNPVSANRSDPVTLNVTYGPDTPTISPSDTYYRPGANLSLSCYAASNPPAQYSWLINGTFQQSTQELFIPNITVNNSGSYTCHANNSVTGCNRTTVKTIIVTELSPVVAKPQIKASKTTVTGDKDSVNLTCSTNDTGISIRWFFKNQSLPSSERMKLSQGNTTLSINPVKREDAGTYWCEVFNPISKNQSDPIMLNVNYNALPQENGLSPG
modifications: biotin-labeled when used as the soluble partner (sites not given)
notes: also called biotin-labeled hCEACAM1-Fc; not shown: pr

Series [1] concerns the target B3. As to the kind of experiment: competition ELISA, hCEACAM1-Fc coated, antibody pre-mixed with hCCM1-Fc-biotin 500 ng/mL; blocked interaction hCEACAM1-Fc/hCEACAM1-Fc. Here is the method: (§1) In another 96-well-plate, anti-CEACAM1 antibody was serially diluted 2-fold starting from a concentration of 60 μg/ml, and added into 11 wells, and the last well was added only with PBS to which 1% BSA was added, and then biotin-labeled hCEACAM1-Fc was added in the same amount as the anti-CEACAM1 antibody (which was diluted to 0.5 μg/mL), and reacted at room temperature for 1 hour. After 1 hour, 100 μL each of a mixture of the anti-CEACAM1 antibody and the biotin-labeled hCEACAM1-Fc were added to the blocked plate and reacted again at room temperature for 1 hour.
(§2) After 1 hour, each well was washed 3 times by adding 300 μL of PBS (to which 0.05% Tween 20 was added) thereto, and then streptavidin-peroxidase polymer (Sigma, S2438-250UG) was diluted at a 1:5,000 ratio in PBS (to which 1% BSA was added), 100 μL each of the resultant was added to each well, and reacted at 37° C. for 40 minutes. Each well where the reaction was completed was washed 3 times by adding 300 μL of PBS (to which 0.05% Tween 20 was added), and then 100 μL of TMB microwell peroxidase substrate (KPL, 50-76-03) was added thereto and reacted for 5 minutes. To terminate the reaction, an equal amount of sulfuric acid (Sigma-Aldrich, 339741) was added and the OD value was measured at 450 nm wavelength using an ELISA reader.
A general note: An ELISA detects its analyte on a solid surface through an enzyme-linked reagent.

Series [2] addresses T1, hCEACAM1 (R&D Systems, Cat. No. 2244-CM) (human, UniProt P13688 35-428).
T1 construct: Anti-His (His1K) biosensors were used, which implies a His tag
T1 sequence: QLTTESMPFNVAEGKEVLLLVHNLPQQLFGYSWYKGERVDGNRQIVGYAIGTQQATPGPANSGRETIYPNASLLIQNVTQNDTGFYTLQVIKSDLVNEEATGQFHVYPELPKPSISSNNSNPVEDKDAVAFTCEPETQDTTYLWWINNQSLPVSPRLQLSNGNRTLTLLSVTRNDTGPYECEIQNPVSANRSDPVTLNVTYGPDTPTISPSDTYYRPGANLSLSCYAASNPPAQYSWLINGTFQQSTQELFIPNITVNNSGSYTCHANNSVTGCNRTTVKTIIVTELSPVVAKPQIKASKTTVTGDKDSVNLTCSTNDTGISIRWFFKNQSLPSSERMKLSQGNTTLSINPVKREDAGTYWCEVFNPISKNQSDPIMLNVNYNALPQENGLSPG
As to the kind of experiment: BLI (Octet QKe), hCEACAM1 on anti-His biosensor, antibody 6.25-400 nM in solution. As to the method: Quantitative binding strength of the anti-CEACAM1 antibody to CEACAM1 was measured using the Octet QKe (Pall ForteBio). The anti-CEACAM1 antibody was subjected to a ½ concentration dilution 6 times at a concentration of 400 nM, and the antibodies at concentrations of 400 nM, 200 nM, 100 nM, 50 nM, 25 nM, 12.5 nM, and 6.25 nM were added into a Greiner 96-well-plate (Greiner, Cat. No. 655209) in an amount of 200 μL each in a row, and the last well was added at a concentration of 0 nM. In another row, hCEACAM1 (R&D Systems, Cat. No. 2244-CM) was diluted to a concentration of […], and was added in an amount of 200 μL each in a row.
Washing buffer, neutralization buffer, and baseline buffer were diluted 10 times with Reagent/Kinetics buffer (10×) (Fortebio, Cat. No. 18-1092) and was added in an amount of 200 μL in each row, and regeneration buffer was added in an amount of 200 μL in a row. A separate Greiner 96-well-plate was prepared, and Reagent/Kinetics buffer (IX) was added in an amount of 200 μL to as many wells as the number of biosensors to be used, and the Biosensors/Anti-His(His1K) (Fortebio, Cat. No. 18)-5120) Cassette was mounted.
Background: BLI is a label-free optical method that tracks binding on a fibre tip over time.

In series [3] the target is B3. In words: competition ELISA: antibody titrated from 60 µg/mL, mixed with biotin-labeled hCEACAM1-Fc, added to coated hCEACAM6-Fc. As to the method: (§3) In another 96-well-plate, the anti-CEACAM1 antibody was serially diluted 2-fold starting from a concentration of 60 μg/mL and added into 11 wells, and the last well was added with only PBS (to which 1% BSA was added), and then biotin-labeled hCEACAM 1-Fc was added in the same amount as the diluted anti-CEACAM1 antibody to a concentration of 0.5 μg/mL, and reacted at room temperature for 1 hour. After 1 hour, 100 μL each of a mixture of the anti-CEACAM1 antibody and the biotin-labeled hCEACAM1-Fc were added to the blocked plate and reacted again at room temperature for 1 hour.
(§4) After 1 hour, each well was washed 3 times by adding 300 μL of PBS (to which 0.05% Tween 20 was added) thereto, and then streptavidin-peroxidase polymer (Sigma, S2438-250UG) was diluted at a 1:5,000 ratio in PBS (to which 1% BSA was added), and 100 μL each of the resultant was added to each well, and reacted at 37° C. for 40 minutes. Each well where the reaction was completed was washed 3 by adding 300 μL of PBS (to which 0.05% Tween 20 was added) thereto, and then 100 μL each of TMB microwell peroxidase substrate (KPL, 50-76-03) was added thereto, and reacted for 5 minutes. To terminate the reaction, an equal amount of sulfuric acid (Sigma-Aldrich, 339741) was added and the OD value was measured at 450 nm wavelength using an ELISA reader.

For series [4], the target named is B3. In words: competition ELISA: antibody titrated from 60 µg/mL, mixed with biotin-labeled hCEACAM1-Fc, added to coated hCEACAM1-Fc. Here is the method:
as §1, §2

The target of series [5] is B3. In words: competition ELISA, hCEACAM6-Fc coated, antibody pre-mixed with biotin-labeled hCEACAM1-Fc; blocked interaction hCEACAM1-Fc/hCEACAM6-Fc. Here is the method: as §3, §4
Series [6] concerns the target T1, hCEACAM1 (R&D Systems, Cat. No. 2244-CM). In words: not stated at this place; presumably the BLI of Experimental Example 4; summary statement in the description, no assay named.
Series [7] has as its target T2, hCEACAM6-Fc (human), P40199.
T2 chain: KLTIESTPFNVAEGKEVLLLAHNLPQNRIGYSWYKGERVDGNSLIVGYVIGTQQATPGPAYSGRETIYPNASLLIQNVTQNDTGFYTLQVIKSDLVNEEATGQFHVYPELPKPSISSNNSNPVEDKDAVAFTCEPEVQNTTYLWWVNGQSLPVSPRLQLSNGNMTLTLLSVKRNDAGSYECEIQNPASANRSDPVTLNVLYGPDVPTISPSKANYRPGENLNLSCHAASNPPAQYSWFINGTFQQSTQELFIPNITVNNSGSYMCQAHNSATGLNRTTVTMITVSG
As to the kind of experiment: ELISA, coated hCEACAM6-Fc (2.5 µg/mL), biotin-labeled hCEACAM1-Fc titrated from 150 µg/mL. To be noted: remark: other sources report otherwise.

Series [8] has the same target. In words: ELISA, hCEACAM6-Fc coated, biotin-labeled hCEACAM1-Fc titrated, streptavidin-peroxidase detection. Particulars: remark: other sources report otherwise.
Series [9] concerns the molecule itself. As to the kind of experiment: ELISA, coated hCEACAM1-Fc (2.5 µg/mL), biotin-labeled hCEACAM1-Fc titrated from 150 µg/mL. Here is the method:
(§5) The hCEACAM1-Fc prepared in Example 5.1 was diluted with PBS to a concentration of 2.5 μg/mL, and then 100 μL each of the resultant was added into a NUNC immuno module (NUNC, 468667) plate and coated at 4° C. overnight. On the next day, after washing with PBS (to which 0.05% Tween 20 was added), 300 μL of PBS (to which 1% BSA was added) was added to each well of the coated plate, and blocking was performed by reacting at room temperature for 2 hours. In addition, after washing 3 times with PBS (to which 0.05% Tween 20 was added), biotin-labeled hCEACAM1-Fc was serially diluted 3-fold starting from a concentration of 150 μg/mL, and added into 11 wells in the plate coated with hCEACAM1-Fc. The last well was added only with PBS to which 1% BSA was added. The wells were reacted at 37° C. for 1 hour. After 1 hour, each well was washed 3 times by adding 300 μL of PBS (to which 0.05% Tween 20 was added), and then streptavidin-peroxidase polymer (Sigma, S2438-250UG) was diluted at a 1:5,000 ratio in PBS (to which 1% BSA was added), 100 μL each of the resultant was added into each well, and reacted at 37° C. for 40 minutes. […] To terminate the reaction, an equal amount of sulfuric acid (Sigma-Aldrich, 339741) was added and the OD value was measured at 450 nm wavelength using an ELISA reader.

Series [10] concerns the molecule itself. In words: ELISA, hCEACAM1-Fc coated, biotin-labeled hCEACAM1-Fc titrated, streptavidin-peroxidase detection. As to the method: as §5

B1: anti-CEACAM1 antibody (antibody, V domains shown)
VH: EVQLLESGGGLVQPGGSLRLSCAASGFTFSNYAMSWVRQAPGKGLEWVSVISHGGGSIYYADSVKGRLTISRDNSKNTLYLQMNSLRAEDTAVYYCARDPTKGYAPTFDYWGQGTLVTVSS
VL: QSVLTQPPSASGTPGQRVTISCSGSSSNIGNNYVSWYQQLPGTAPKLLIYADSRRPSGVPDRFSGSKSGTSASLAISGLRSEDEADYYCGAWDLSLNGYVFGGGTKLTVLG
notes: also called anti-CEACAM1 antibody according to an embodiment
As a reminder, the Kd is a measure of binding affinity in units of concentration. Low values mean a tighter complex, high ones a looser complex. By koff is commonly meant the first-order rate constant of dissociation. What is called kon is the second-order rate constant of association. Higher therefore signals faster complex formation. A word on the IC50: it is the concentration that gives 50% inhibition. Low readings indicate greater potency in that assay, high ones weaker potency in that assay. Take B1: the entries for the “IC50 (read off the curve)” value with hCEACAM1-Fc [1] and with hCEACAM1-Fc [5] were approximately 0.8 µg/mL and approximately 1 µg/mL, respectively. Moreover, the Kd turned out to be 3.39 nM in series [2] and 3.36 nM in [6]. This molecule also yielded a koff in series [2] of 0.000567 s⁻¹. In [2], the kon came to 163000 M⁻¹ s⁻¹. The IC50 amounted to 0.795 µg/mL with hCEACAM1-Fc [3] and 1.05 µg/mL with hCEACAM1-Fc [4].

B2: hCEACAM1-Fc, P13688 35-428 (Fc fusion, not shown: a dimerising Fc or GST)
chain: QLTTESMPFNVAEGKEVLLLVHNLPQQLFGYSWYKGERVDGNRQIVGYAIGTQQATPGPANSGRETIYPNASLLIQNVTQNDTGFYTLQVIKSDLVNEEATGQFHVYPELPKPSISSNNSNPVEDKDAVAFTCEPETQDTTYLWWINNQSLPVSPRLQLSNGNRTLTLLSVTRNDTGPYECEIQNPVSANRSDPVTLNVTYGPDTPTISPSDTYYRPGANLSLSCYAASNPPAQYSWLINGTFQQSTQELFIPNITVNNSGSYTCHANNSVTGCNRTTVKTIIVTELSPVVAKPQIKASKTTVTGDKDSVNLTCSTNDTGISIRWFFKNQSLPSSERMKLSQGNTTLSINPVKREDAGTYWCEVFNPISKNQSDPIMLNVNYNALPQENGLSPG
modifications: here or on the partner: biotin-labeled when used as the soluble partner (sites not given)
Take B2: the EC50 in series [7] was determined as 0.305 µg/mL. Besides, the EC50 (read off the curve) in [8] was 0.3 µg/mL.

In series [9], B3 came in with an EC50 of 0.286 µg/mL. Also, in series [10], the “EC50 (read off the curve)” value is approximately 0.3 µg/mL.
